Patent publication US20220356229A1 (published 2022)
Changes are numbered by the printed parent chain.

B1: antibody 260 (antibody, V domains shown)
VH: EVQLVESGGGLVQPGRSLRLSCAASGFTFDYYAMHWVRQAPGKGLEWVSGISWNSGTIGYADSVKGRFTISRDNAKNSLYLQMNSLRAEDTALYYCAKDSRPSGRYYYGMDVWGQGTTVTVSS
VL: not shown
B2: antibody 276 (antibody, V domains shown)
VH: QVQLQESGPGLVKPSQTLSLTCTVSGDSISSGGYYWSWIRQHPGKGLEWIGYIYYSGSAYYNPSLKSRVTISLDTSKNQFSLKLSSVTAADTAVYYCARDSVAGFSIFDYWGQGTLVTVSS
VL: SSELTQDPAVSVALGQTVRITCQGDSLRSYYASWYQQKPGQAPVRVIYGKNNRPSGIPDRFSGSSSGNTASLTITGAQAEDEADYYCNSWDSSGNHVVFGGGTKLTVL
B3: antibody 263 (antibody, V domains shown)
VH: EVQLVQSGAEVKKPGATVKISCKVSGYTFTDYYMHWVQQAPGKGLEWMGLVDPEDGETIYAEKFQGRVTITADTSTDTAYMELSSLRSDDTAVYYCTTDLAFTIFGGRRGFDPWGQGTLVTVSS
VL: DIQLTQSPSFLSASVGDRVTITCRASQGISSYLAWYQQKPGKAPKLLIYAASTLQSGVPSRFSGSGSGTEFTLTISSLQPEDFATYYCQQLNSYDFGQGTRLEIK
B4: antibody 273 (antibody, V domains shown)
VH: QVQLVQSGAEVKKPGASVKVSCKVSGYTLTELSMHWVRQAPGKGLEWMGGFDPEDGETIYAQKFQGRVTMTEDTSTDTAYMELSSLRSEDTAVYYCATAPGYYDSSAPQPINWFDPWGQGTLVTVSS
VL: QSALTQPASVSGSPGQSITISCTGTSSDVGSYNLVSWYQQHPGKAPKLMIYEVSKRPSGVSNRFSGSKSGNTASLTISGLQAEDEADYYCCSYAGSSTLVFGGGTKLTVL
B5: antibody 266 (antibody, V domains shown)
VH: QVQLVESGGGVVQPGRSLRLSCAASGFNLSNYAMHWVRQPSGKGLEWVSLISYDGSIKYYTDSVKGRFTVSGDNSKNTLFLQMNSLRPDDSALYYCVRGGVSGPNSFDMWGQGTTVTVSS
VL: DVVMTQSPLSLPVTLGQPASISCRSSQSLVYSDGNTYVNWFQQRPGQSPRRLIYQVSIRASGVPDRFSGSGSGTDFALKISRVEAEDVGVYYCMQGTHWPVTFGQGTKVEIK
B6: antibody 264 (antibody, V domains shown)
VH: QVHLVESGGGVVQPGRSLRLSCAASGFTLTSYAMHWVRQAPGKGLEWVALISYDGSVKKYAESVKGRITVSGDNSRNTLHLQINTLRADDTAVYYCVRGGVSGPNSFDLWGQGTMVTVSS
VL: B5 VL with V30E, I58N, A77T, K79Q, V90I
B7: antibody 303 (antibody, V domains shown)
VH: B5 VH with N31S, P40A, T61A, T78M, P88A, S106A, M109I
VL: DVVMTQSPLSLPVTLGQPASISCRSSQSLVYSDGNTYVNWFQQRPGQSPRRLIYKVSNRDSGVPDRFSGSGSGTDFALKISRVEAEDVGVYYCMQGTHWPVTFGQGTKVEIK
B8: antibody 281 (antibody, V domains shown)
VH: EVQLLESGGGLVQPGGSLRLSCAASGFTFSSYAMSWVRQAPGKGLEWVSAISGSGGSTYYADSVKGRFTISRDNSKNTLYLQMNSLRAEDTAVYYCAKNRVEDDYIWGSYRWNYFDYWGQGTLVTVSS
VL: QSALTQPASVSGSPGQSITISCTGTSSDVGSYNLVSWYQQHPGKAPKLMIYEVSKRPSGVSNRFSGSKSGNTASLTISGLQAEDEADYYCCSYAGSSTHVVFGGGTKLTVL
B9: antibody 265 (antibody, V domains shown)
VH: EVQLVQSGAEVKKPGATVKVSCKFSGDTFSHYYIHWVQQAPGKGLEWMGLVDPQDGESEYAQKFQGKVTITADTSIDTSYLEVTSLRFDDTAFYFCATRGMSGAFDRWGQGTLVTVSS
VL: DIVMTQSPDSLAVSLGERATINCKSSQSILSTSNNKNYLAWYQQKPGQPPKLLIYWASTRESGVPDRFSGGGSGTDFTLTISSLQAEDVAVYYCQQYYRTAYTTPIYTFGQGTKLEIK
B10: anti-SARS-CoV-2 antibody 407 (antibody, V domains shown)
VH: QVQLVESGGGVVQPGRSLRLSCAASGFTFSSYGMHWVRQAPGKGLEWVAVISYDGSNKYYADSVKGRFTISRDNSKNTLYLQMNSLRAEDTAVYYCAKCGWDYDFWVGQGYGMDVWGQGTTVTVSS
VL: not shown
B11: anti-SARS-CoV-2 antibody 385 (antibody, V domains shown)
VH: QVQLVESGGGVVQPGRSLRLSCAASGFTFSSYAIHWVRQAPGKGLEWVAVISYDGSNKYYADSVKGRFTISRDNSKNTLYLQMNSLRAEDTAVYYCARPRSGSYWGAFDIWGQGTMVTVSS
VL: QSVLTQPPSVSGAPGQRVTISCTGSSSNIGARYDVHWYQQLPGTAPKLLIYGNSNRPSGVPDRFSGSKSGTSASLAITGLQAEDEADYYCQSYDSSLRGVFGGGTKLTVL
B12: anti-SARS-CoV-2 antibody 404 (antibody, V domains shown)
VH: QVQLVESGGGVVQPGRSLRLSCAASGFTFSSYGMHWVRQAPGKGLEWVAVIWYDGSNKYYADSVKGRFTISRDNSKNTLYLQMNSLRAEDTAVYYCARLAVDISFDGSDGMDVWGQGTTVTVSS
VL: SYELTQPPSVSVSPGQTARITCSGDALPKKYAYWYQQKSGQAPVLVIYEDSKRPSGIPERFSGSSSGTMATLTISGAQVEDEADYYCYSTDSSGKGVFGTGTKVTVL
B13: anti-SARS-CoV-2 antibody 422 (antibody, V domains shown)
VH: QVQLVQSGSELKKPGASVKVSCKASGYTFTSYAMNWVRQAPGQGLEWMGWINTNTGNPTYAQGFTGRFVFSLDTSVSTTYLQISSLKAEDTAVYYCARVIGVVTYYYYGMDVWGQGTTVTVSS
VL: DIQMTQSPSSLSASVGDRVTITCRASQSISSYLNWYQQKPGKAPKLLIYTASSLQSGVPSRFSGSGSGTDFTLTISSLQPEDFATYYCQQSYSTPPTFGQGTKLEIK
B14: anti-SARS-CoV-2 antibody 392 (antibody, V domains shown)
VH: QVQLQESGPGLVKPSGTLSLTCAVSGGSISSSNWWSWVRQPPGKGLEWIGEIYHSGSTNYNPSLKSRVTISVDKSKNQFSLKLSSVTAADTAVYYCARGWRATLYGMDVWGQGTTVTVSS
VL: B4 VL with L99W
B15: anti-SARS-CoV-2 antibody 405 (antibody, V domains shown)
VH: not shown
VL: B4 VL with A8R, I18V, S31G, L34Y, E52D, S61P, N62D, S97Y, T98N, L99V
B16: anti-SARS-CoV-2 antibody 423 (antibody, V domains shown)
VH: EVQLVESGGGLIQPGGSLRISCAASGFTVRNNHMSWVRQAPGKGLEWVSVFYRGGTTYYADSVKGRFTISRDDSKNTVDLQMNSLRGEDTAVYYCARGLSVAASGYFDCWGQGTLVTVSS
VL: DIQMTQSPSSVSASVGDTVTITCRANQGISSWLAWYQQVPGKAPELLIYATSTLQSGVPSRFSGSGSGTDFTLTISSLQPEDFATYYCQQANSFPFTFGPGTKVDIK
B17: anti-SARS-CoV-2 antibody 412 (antibody, V domains shown)
VH: QVQLVQSGAEVKKPGASVKVSCKASGYTFTSYGISWVRQAPGQGLEWMGWISAYNGNTNYAQKLQGRVTMTTDTSTSTAYMELRSLRSDDTAVYYCARVTVEAIFGVVILPLKNWFDPWGQGTLVTVSS
VL: QSVLTQPPSVSGAPGQRVTISCTGSSSNIGAGYDVHWYQQLPGTAPKLLIYGNSNRPSGVPDRFSGSKSGTSASLAITGLQAEDEADYYCQSYDSSLTLYVFGTGTKVTVL
B18: anti-SARS-CoV-2 antibody 395 (antibody, V domains shown)
VH: QVQLVQSGSELKKPGASVKLSCQASGYTFSNHAMNWVRQAPGQGLEWMGWINTNTGNPTYAQGFTGRFVFSLDTSVGTAYLHISSLKAEDTAFYYCARASARPGVATNLDFWGQGTLVVVSS
VL: DIQMTQSPSSLSASVGDRVTITCRTSQNIDNYLNWYQQKPGKAPNLLIYAASRLHSGVPSRFSGSGSGTDFTLIISSLQPEDLATYYCQQSYSNPLTFGPGTKVDIR
B19: anti-SARS-CoV-2 antibody 421 (antibody, V domains shown)
VH: QVQLVESGGGVVQPGRSLRLSCAASGFTFSTYAMHWVRQAPGKGLEWVAVISYDGSNKYYADSVKGRFTISRDNSKNTLYLQMNSLRAEDTAVYYCARGYGSGSYYPLYLYWGQGTLVTVSS
VL: not shown
B20: anti-SARS-CoV-2 antibody 431 (antibody, V domains shown)
VH: QVQLVESGGGVVQPGRSLRLSCAASGFTFSSYAMHWVRQAPGKGLEWLAVISYDGSNKYYADSVKGRFTISRDNSKNTLYLQMNSLRAEDTAVYYCARSFRGGYYYGMDVWGQGTTVTVSS
VL: DIQLTQSPSFLSASVGDRVTITCRASQGISSYLAWYQQKPGKAPKLLIYAASTLQSGVPSRFSGSGSGTEFTLTISSLQPEDFATYYCQQLNSYPLFTFGPGTKVDIK
B21: anti-SARS-CoV-2 antibody 409 (antibody, V domains shown)
VH: QVTLRESGPALVKPTQTLTLTCTFSGFSLSTSGMCVSWIRQPPGKALEWLALIDWDDDKYYSTSLKTRLTISKDTSKNQVVLTMTNMDPVDTATYYCARTTYYYVSGRRAEFDPWGQGTLVTVSS
VL: NFMLTQPHSVSESPGKTVTISCTGSSGSIASNYVQWYQQRPGSAPTTVIYEDNQRPSGVPDRFSGSIDSSSNSASLTISGLKTEDEADYYCQSYDSSNQGVFGGGTKLTVL
B22: anti-SARS-CoV-2 antibody 396 (antibody, V domains shown)
VH: QVQLQQWGAGLLKPSETLSLTCAVYGGSFSGYYWSWIRQPPGKGLEWIGEIIHSGSTNYNPSLKSRVTISVDTSKNQFSLKLSSVTAADTAVYYSARRTGLLWFREGSYYFDYWGQGTLVTVSS
VL: DIQMTQSPSSLSASVGDRVTITCRASQGIRNDLGWYQQKPGKAPKRLIYAASSLQSGVPSRFSGSGSGTEFTLTISSLQPEDFATYYCLQHNSYPLTFGGGTKVEIK
B23: antibody 434 (antibody, V domains shown)
VH: QVQLVQSGAEVKKPGASVQVSCKASGYTFSDYYIFWVRQAPGQGLEWMGCINPKSGGAIYAQRFQGRVTMTRDTSFNTAYMEMNRLGSDDTAVYYCVTRGPPDIAASGFAWHLDVWGQGTTVTVSS
VL: DIVMTQSPLSLPVTPGEPASISCRSSQSLLSSNGYNYLEWYLQKPGQSPQLLMYLGSNRASGVPDRFSGSGSGTDFTLKINRVEAEDVGVYYCMQALQTPLTFGGGTKVEIK

Each binder was assayed against SARS-CoV-2 Spike (S) protein, wild type, full length (SARS-CoV-2, UniProt P0DTC2 14-1208).

Going from B1 to B2, the “bead binding signal (fold over isotype)” value rises from 724 fold over isotype to 748 fold over isotype.

First: B3
Second: B4
The “bead binding signal (fold over isotype)” value of the first is lower: 722 fold over isotype for the first, 924 fold over isotype for the second.

Going from B5 to B6, the “bead binding signal (fold over isotype)” value rises from 473 fold over isotype to 598 fold over isotype.

Compared with B7, B8 is higher in “bead binding signal (fold over isotype)” value: 341 fold over isotype for the first, 570 fold over isotype for the second.

B9 was tested, and the “bead binding signal (fold over isotype)” value was 1280 fold over isotype.

These binders were tested against SARS-CoV Spike protein (full length Spike, coupled to optically encoded beads) (SARS-CoV, UniProt P59594 14-1190).

Going from B10 to B11, the “median fluorescence, fold over isotype” value rises from 1.07 fold over isotype to 59.6 fold over isotype.

Going from B12 to B13, the “median fluorescence, fold over isotype” value rises from 1.04 fold over isotype to 1.19 fold over isotype.

First: B14
Second: B15
The “median fluorescence, fold over isotype” value of the first is lower: 1.08 fold over isotype for the first, 80.9 fold over isotype for the second.

First: B16
Second: B17
The “median fluorescence, fold over isotype” value of the first is higher: 1.23 fold over isotype for the first, 1.09 fold over isotype for the second.

First: B18
Second: B19
The “median fluorescence, fold over isotype” value of the first is lower: 1.16 fold over isotype for the first, 1.19 fold over isotype for the second.

Compared with B20, B21 is lower in “median fluorescence, fold over isotype” value: 49.9 fold over isotype for the first, 1.03 fold over isotype for the second.

B22 was tested, and the “median fluorescence, fold over isotype” value was 1.36 fold over isotype.

What follows are binders tested against SARS-CoV Spike protein (SARS-CoV, UniProt P59594 14-1190).

B23 was tested, and the “bead binding signal (fold over isotype control)” value was 1.36.
